This is an account of results in US10106589B2, “Compositions and methods for immunomodulation” (FUNDACIO INSTITUT D'INVESTIGACIO BIOMEDICA DE BELLVITGE …, priority 2011, dated 2018).

Assay [1] deals with human Mo-DCs. Description: Flow cytometry of cell surface markers on treated, LPS-matured Mo-DCs. The assay is classed as cell-based. Set-up: key to HLA-DR / CD40 / CD83 / CD86 / CD14 / CD1a / CCR7: (−) negligible; (+) low; (++) moderate; (+++) high. Here is the method: Peripheral blood mononuclear cells (PBMCs) were obtained from buffy coat preparations belonging to healthy donors from the Blood and Tissue Bank (Barcelona, Spain) after Ficoll-Paque™ density centrifugation (GE Healthcare Bio-Sciences AB; Uppsala, Sweden). Monocytes were purified by two different methods: 1) Cells were plated at 1×10^6 cells/ml in 60 mm culture plates (Corning, Spain) in RPMI without serum and allowed to adhere for 2 h at 37° C. in 5% CO2. The non-adherent cells were removed by washing in PBS. […] 2) Cells were purified using colloidal super-paramagnetic microbeads conjugated with monoclonal mouse anti-human CD14 antibodies (MACS, Miltenyi Biotec, Auburn, Calif., or EasySep® Positive Selection Cocktail, StemCell Technologies, Grenoble, France). The purity of CD14^+ cells was tested by CD14 staining and flow cytometry analysis (>90% CD14^+ cells). Monocyte-derived DCs (Mo-DCs) were generated supplementing the monocyte cultures with complete RPMI 1640 medium plus GM-CSF (800 UI/ml) and IL-4 (500 UI/ml) (both from Gentaur, Kampenhout, Belgium) at day 0 and day 3 of culture. For DC maturation, at day 5 iDCs were further stimulated for 48 h with 5 μg/ml LPS (Escherichia coli 055.B5, Sigma L2880, Copenhagen, Denmark).
Cell surface phenotypes were analyzed using the following monoclonal antibodies: FITC-conjugated anti-HLA-DR (Immu-357), FITC-conjugated anti-CD83 (HB15a), FITC-conjugated anti-CD14 (RMO52), PE-conjugated anti-CD40 (MAB89), PE-conjugated anti-CD1a (BL6), PE-conjugated anti-CD80 (MAB104), PE-conjugated anti-CD86 (HA5.2B7) (all from Beckman-Coulter), Alexa Fluor 488-conjugated anti-CCR7 (TG8/CCR7, Biolegend, San Diego, Calif.), and the respective isotype controls from the same commercial sources. After washing with PBS, cells were subsequently stained with 3 μl MoAb/10^5 cells in 100 μl of FACS buffer (PBS containing 1% BSA and 0.1% sodium azide) for 20 min at room temp. Stained cells were analysed using a FACScalibur (Becton Dickinson). Mo-DCs were gated according to forward scatter (FSC) and side scatter (SSC) parameters. The results were analysed using CellQuestPro software (Becton Dickinson).
Both the different C4BP isoforms (α7β1, α7β0 and α6β0), and Factor H were added at 2, 5 and 10 μg/ml throughout Mo-DC differentiation, maturation, or both. Namely, for the differentiation assays the proteins were added at day 0 and replenished at day 3. For the maturation assays the proteins were added at day 5, either alone or combined with LPS. Finally, for the differentiation plus maturation assays the proteins were added at days 0, 3 and 5 (at the last time point, combined with LPS).
A general note: Flow cytometry measures light scatter and fluorescence of single cells or particles in a stream.

The test system of assay [2] is LPS-matured human Mo-DCs. Description: DC cytokine secretion (Th1/Th2 Flow cytomix Multiplex). Set-up: key to IL-12 / IL-6 / IL-8 / IL-10 / TNF-α / IFN-γ: (−) negligible; (+) low; (++) moderate; (+++) high. The assay is classed as cell-based. Here is the method: Concentrations of IL-12p70, TNF-α, IFN-γ, IL-10, IL-6 and IL-8, were determined from DC supernatants treated with the C4BP isoforms α7β1 and α7β0 using the Th1/Th2 Flow cytomix Multiplex kit (Bender-Medsystems, Viena, Austria), according to the manufacturer's instructions.

For assay [3], the system named is human Mo-DCs. Description: Chemotaxis transwell assay towards CCL21. Conditions: for migration of LPS-matured Mo-DCs towards the chemokine CCL21: transwell, 2 h. Further details: key to Chemotaxis (CCL21): (−) negligible; (+) low; (++) moderate; (+++) high. The assay is classed as cell-based. Here is the method: Mo-DCs differentiated and matured (LPS for 48 h) in presence of the C4BP isoforms α7β1, α7β0, or Factor H, were tested for migration toward the CCL21 chemokine using transwell assays. Briefly, the lower chambers of transwell plates (polycarbonate filters of 8.0 μm pore size; Costar, Corning, N.Y.) were filled with 400 μl of complete RPMI with or without CCL21 (200 ng/ml). A total of 1×10^5 DCs in 100 μl of complete RPMI were added into the upper chamber, and cells were incubated at 37° C. for 2 h. Cells migrated into the lower chambers were harvested and counted with a FACScalibur flow cytometer acquiring events for a fixed time period of 2 min using CellQuest software (Becton Dickinson). The migration assays for all stimulation conditions were performed in duplicate wells. Values are given as percentage of migrated cells relative to the untreated, mDCs (100%).

Assay [4] deals with allogeneic CD3+ T cells. Description: Mixed leukocyte reaction ([3H]-thymidine incorporation). The assay is classed as cell-based, human. Further details: key to Alloproliferation (T CD3^+): (−) negligible; (+) low; (++) moderate; (+++) high. The method, then: CD3^+ T cells (10^5/well) and C4BP-treated (α7β1 and α7β0), or Factor H-treated, and LPS-activated Mo-DCs were seeded in a 96-well round-bottom plate at various DC:T cell ratios (1:40, 1:80 and 1:160) and cultured in X-VIVO 15 medium (Biowittaker, Walkersville, Md.) supplemented with 100 μg/ml of streptomycin, 100 IU/ml of penicillin and 2 mM L-glutamine (all from Invitrogen) plus 2% Human AB Serum. Allospecific proliferation was measured after 5 days of incubation. At day 4, the […] [^3H]-thymidine (1 μCi/well, Perkin Elmer, Boston, Mass.) was added, followed by incubation for another 16 h. Labeled cells were then harvested onto glass-fiber filters with a Filtermate Harvester (Packard, Meriden, Conn.), and the T cell proliferation rate was determined by the amount of [^3H]-thymidine incorporation, which was measured in a TopCount NXT counter (Packard). Results are reported as the mean cpm±SD of thymidine incorporation in quadruplicate culture wells.

For assay [5], the system named is NSG immunodeficient mice. Description: Human xeno-graft-versus-host disease (xeno-GvHD) model. The assay is classed as in vivo. The conditions noted are these: co-transfer or late infusion of treated monocyte-derived DCs (5×10^5/mouse) with human PBMCs; versus PBMCs alone. From the text: We assessed the in vivo tolerogenic or regulatory capacity of C4BP(β^−)-treated or Factor H-treated monocyte-derived DCs in a human xeno-graft-versus-host disease (xeno-GvHD) model (King et al. (2009) Clin. Exp. Immunol. 157: 104-118). Intravenous injection of human peripheral blood mononuclear cells (PBMCs; 10×10^6/mouse) induced xeno-GvHD in NSG immunodeficient mice (The Jackson Laboratory) (8-12 weeks of age) (median survival time 30-40 days).

Setting [6] is: surface marker, treated and LPS-induced DCs.
Where [7] appears, read: treated throughout differentiation and maturation, LPS-matured.
The mark [8] stands for this setting: cytokine, treated and LPS-induced DCs.
[9] abbreviates: pre-treated at 2 μg/ml, matured with LPS.
The mark [10] stands for this setting: functional assay, treated and LPS-induced DCs.

B1: C4BP α7β1: major C4BP isoform, 7 identical α-chains and 1 β-chain, purified from pooled human plasma (protein, UniProt P04003 49-597; P20851 18-252, looked up)
C4b-binding protein alpha …: NCGPPPTLSFAAPMDITLTETRFKTGTTLKYTCLPGYVRSHSTQTLTCNSDGEWVYNTFCIYKRCRHPGELRNGQVEIKTDLSFGSQIEFSCSEGFFLIGSTTSRCEVQDRGVGWSHPLPQCEIVKCKPPPDIRNGRHSGEENFYAYGFSVTYSCDPRFSLLGHASISCTVENETIGVWRPSPPTCEKITCRKPDVSHGEMVSGFGPIYNYKDTIVFKCQKGFVLRGSSVIHCDADSKWNPSPPACEPNSCINLPDIPHASWETYPRPTKEDVYVVGTVLRYRCHPGYKPTTDEPTTVICQKNLRWTPYQGCEALCCPEPKLNNGEITQHRKSRPANHCVYFYGDEISFSCHETSRFSAICQGDGTWSPRTPSCGDICNFPPKIAHGHYKQSSSYSFFKEEIIYECDKGYILVGQAKLSCSYSHWSAPAPQCKALCRKPELVNGRLSVDKDQYVEPENVTIQCDSGYGVVGPQSITCSGNRTWYPEVPKCEWETPEGCEQVLTGKRLMQCLPNPEDVKMALEVYKLSLEIEQLELQRDSARQSTLDKEL
C4b-binding protein beta chain: SDAEHCPELPPVDNSIFVAKEVEGQILGTYVCIKGYHLVGKKTLFCNASKEWDNTTTECRLGHCPDPVLVNGEFSSSGPVNVSDKITFMCNDHYILKGSNRSQCLEDHTWAPPFPICKSRDCDPPGNPVHGYFEGNNFTLGSTISYYCEDRYYLVGVQEQQCVDGEWSSALPVCKLIQEAPKPECEKALLAFQESKNLCEAMENFMQQLKESGMTMEELKYSLELKKAELKAKLL
As for B1, the “expression of surface markers (CD14, HLA-DR, CD40, CD80, CD83, CD86, CD1a)” value in assay [1] (treated throughout differentiation and maturation, LPS-matured, vs untreated mDC) was “no effect”. Besides, the “release of cytokines (IL-12p70, IL-10, IL-8, IL-6, TNF-α, IFN-γ)” value in assay [2] (pre-treated Mo-DCs matured with LPS, C4BP 2 μg/ml, Factor H 5 μg/ml) was “the same cytokine levels than untreated Mo-DCs”. The “migration of LPS-matured Mo-DCs towards the chemokine CCL21” value in assay [3] is “maximal migration”. The “allogeneic T cell proliferation” value in assay [4] (Mo-DCs pre-incubated and matured with LPS, DC:T 1:40, 1:80, 1:160, 5 days) is listed as “maximal allogeneic T cell proliferation”. Besides, the survival time result in assay [5] is on record as “no significant protection”.

B2: C4BP (β^−): C4BP isoforms lacking beta chain: C4BP (α7β0) or C4BP (α6β0) (protein, UniProt P04003 49-597, looked up)
C4b-binding protein alpha …: NCGPPPTLSFAAPMDITLTETRFKTGTTLKYTCLPGYVRSHSTQTLTCNSDGEWVYNTFCIYKRCRHPGELRNGQVEIKTDLSFGSQIEFSCSEGFFLIGSTTSRCEVQDRGVGWSHPLPQCEIVKCKPPPDIRNGRHSGEENFYAYGFSVTYSCDPRFSLLGHASISCTVENETIGVWRPSPPTCEKITCRKPDVSHGEMVSGFGPIYNYKDTIVFKCQKGFVLRGSSVIHCDADSKWNPSPPACEPNSCINLPDIPHASWETYPRPTKEDVYVVGTVLRYRCHPGYKPTTDEPTTVICQKNLRWTPYQGCEALCCPEPKLNNGEITQHRKSRPANHCVYFYGDEISFSCHETSRFSAICQGDGTWSPRTPSCGDICNFPPKIAHGHYKQSSSYSFFKEEIIYECDKGYILVGQAKLSCSYSHWSAPAPQCKALCRKPELVNGRLSVDKDQYVEPENVTIQCDSGYGVVGPQSITCSGNRTWYPEVPKCEWETPEGCEQVLTGKRLMQCLPNPEDVKMALEVYKLSLEIEQLELQRDSARQSTLDKEL
B2: the “surface receptor CCR7 on Mo-DCs” value in assay [1] (flow cytometry (MFI), LPS-matured) is “consistent down-regulation”. In addition, in assay [1] (setting [6]), the CCR7 entry is on record as “++”, the CD1a result was “+”, the CD14 entry is given as “+” and the CD40 entry was “++”. In assay [1] (setting [6]), the CD83 result is “+”, the CD86 result is “+” and the HLA-DR result is “+++”. In assay [1] (setting [7]), the CD40 expression result is reported as “unaltered” and the HLA-DR expression result was “unaltered”. Besides, in assay [2] (setting [8]), the IFN-γ entry is given as “−”, the IL-6 result was “+”, the IL-8 entry is listed as “++” and the IL-10 result was “+++”. In assay [2] (setting [8]), the IL-12 result is “−” and the TNF-α result is given as “+”. For the same molecule, in assay [2] (setting [9]), the “production of IL-10” value is “increased the production”, the “release of IFN-γ” value is “prevented the release”, the “release of IL-6” value was “reduced the release” and the “release of IL-8” value is given as “reduced the release”. Also, in assay [2] (setting [9]), the “release of IL-12p70” value is reported as “prevented the release” and the “release of TNF-α” value is listed as “prevented the release”. In assay [3] (setting [10]), the “Chemotaxis (CCL21)” value is “−”. In addition, the “migration of LPS-matured Mo-DCs towards the chemokine CCL21” value in assay [3] was “halted the migration”. Further, the “Alloproliferation (T CD3^+)” value in assay [4] (setting [10]) was “+”. Also, in assay [5], the survival time entry is given as “significantly prolonged survival time”.
